Test results reported in the supplement of paper PMC7877785.
± gives the uncertainty stated by the source.

Assay: self-splicing fitness, log relative to wild type (ln ratio); higher = more splicing; Tetrahymena group I intron in knt gene, E. coli kanamycin selection, DiMSum; sequences stand for … in CUCUCU…GGAGGGAAAAGUUAUCAGGCAUGCACCUGGUAGCUAGUCUUUAAACCAAUAGAUUGCAUCGGUUUAAAAGGCAAGACCGUCAAAUUGCGGGAAAGGGGUCAACAGCCGUUCAGUACCAAGUCUCAGGGGAAACUUUGAGAUGGCCUUGCAAAGGGUAUGGUAAUAAGCUGACGGACAUGGUCCUAACCACGCAGCCAAGUCCUAAGUCAACAGAUCUUCUGUUGAUAUGGAUGCAGUUCACAGACUAAAUGUCGGUCGGGGAAGAUGUAUUCUUCUCAUAAGAUAUAGUCGGACCUCUCCUUAAUGGGAGCUAGCGGAUGAAGUGAUGCAACACUGGAGCCGCUGGGAACUAAUUUGUAUGCGAAAGUAUAUUGAUUAGUUUUGGAGUACUCGUGGUCG
Method in brief: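 The eight P1ex-region nucleotides of an intron in the knt kanamycin-resistance gene on pET-22b(+) were all randomised and the library put into E. coli BL21(DE3). Six replicate transformations were grown overnight at 37°C or 30°C on LB agar with or without 25 μg/mL kanamycin, together with 100 μg/mL carbenicillin, 50 μM IPTG and 0.2% rhamnose. Colonies were pooled and amplicon-sequenced on an Illumina HiSeq 2500. Fitness from DiMSum is the error-weighted combination of wild-type-normalised replicate fold changes, kanamycin over none.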

CCGAAGCAAUAUUACGGUUU
self-splicing fitness (ln) (30 °C): -4.44 ± 0.25
self-splicing fitness (ln) (37 °C): -2.23 ± 0.17

UGGGAGCAAUAUUACGUUCA
self-splicing fitness (ln) (30 °C): -0.406 ± 0.091
self-splicing fitness (ln) (37 °C): -0.266 ± 0.12

GGGAAGCAAUAUUACGCUAA
self-splicing fitness (ln) (30 °C): -1.84 ± 0.2
self-splicing fitness (ln) (37 °C): -0.363 ± 0.18

AGUUAGCAAUAUUACGGAAA
self-splicing fitness (ln) (30 °C): -2.89 ± 0.35
self-splicing fitness (ln) (37 °C): -2.55 ± 0.44

AGCUAGCAAUAUUACGAACG
self-splicing fitness (ln) (30 °C): -0.938 ± 0.19
self-splicing fitness (ln) (37 °C): -1.61 ± 0.18

GUAUAGCAAUAUUACGAGGC
self-splicing fitness (ln) (30 °C): -2.1 ± 0.33
self-splicing fitness (ln) (37 °C): -2.18 ± 0.47

UUUCAGCAAUAUUACGGUUG
self-splicing fitness (ln) (30 °C): -1.62 ± 0.091
self-splicing fitness (ln) (37 °C): -1.1 ± 0.12

UAGCAGCAAUAUUACGGGUU
self-splicing fitness (ln) (30 °C): -3.82 ± 0.21
self-splicing fitness (ln) (37 °C): -1.86 ± 0.16

GGGUAGCAAUAUUACGUAGC
self-splicing fitness (ln) (30 °C): -0.707 ± 0.15
self-splicing fitness (ln) (37 °C): -0.648 ± 0.16

UAUCAGCAAUAUUACGAACC
self-splicing fitness (ln) (30 °C): -1.66 ± 0.24
self-splicing fitness (ln) (37 °C): -0.148 ± 0.38

AUGAAGCAAUAUUACGUUGA
self-splicing fitness (ln) (30 °C): -2.39 ± 0.1
self-splicing fitness (ln) (37 °C): -0.85 ± 0.12

UGUUAGCAAUAUUACGAUCC
self-splicing fitness (ln) (30 °C): -0.915 ± 0.34

UUAAAGCAAUAUUACGGUAA
self-splicing fitness (ln) (30 °C): -0.33 ± 0.076
self-splicing fitness (ln) (37 °C): 0.503 ± 0.1

GGUUAGCAAUAUUACGCCCG
self-splicing fitness (ln) (30 °C): -3.15 ± 0.49
self-splicing fitness (ln) (37 °C): -1.55 ± 0.48

UGUCAGCAAUAUUACGAUAU
self-splicing fitness (ln) (30 °C): -1.6 ± 0.13
self-splicing fitness (ln) (37 °C): -0.448 ± 0.13

AGACAGCAAUAUUACGGGUA
self-splicing fitness (ln) (30 °C): -2.49 ± 0.1
self-splicing fitness (ln) (37 °C): -2.1 ± 0.095

CCGAAGCAAUAUUACGAGCG
self-splicing fitness (ln) (30 °C): -0.283 ± 0.087
self-splicing fitness (ln) (37 °C): 0.807 ± 0.1

GCUCAGCAAUAUUACGAUGG
self-splicing fitness (ln) (30 °C): -1.05 ± 0.11
self-splicing fitness (ln) (37 °C): 0.368 ± 0.13

AUAUAGCAAUAUUACGGCUG
self-splicing fitness (ln) (30 °C): -0.816 ± 0.14
self-splicing fitness (ln) (37 °C): 0.663 ± 0.19

AAGUAGCAAUAUUACGCGCC
self-splicing fitness (ln) (30 °C): -0.381 ± 0.2
self-splicing fitness (ln) (37 °C): -0.0421 ± 0.23

UAGCAGCAAUAUUACGCCGU
self-splicing fitness (ln) (30 °C): -2.13 ± 0.13
self-splicing fitness (ln) (37 °C): -1.24 ± 0.15

AAGGAGCAAUAUUACGGCAU
self-splicing fitness (ln) (30 °C): -2.77 ± 0.18
self-splicing fitness (ln) (37 °C): -2.05 ± 0.23

UAAAAGCAAUAUUACGAAGC
self-splicing fitness (ln) (30 °C): -3.23 ± 0.3
self-splicing fitness (ln) (37 °C): -3.29 ± 0.46

CAGCAGCAAUAUUACGUGAG
self-splicing fitness (ln) (30 °C): -0.675 ± 0.06
self-splicing fitness (ln) (37 °C): -0.267 ± 0.086

GCUCAGCAAUAUUACGGUUU
self-splicing fitness (ln) (30 °C): -0.112 ± 0.059
self-splicing fitness (ln) (37 °C): 0.228 ± 0.073

AGUUAGCAAUAUUACGAAUG
self-splicing fitness (ln) (30 °C): -2.33 ± 0.16
self-splicing fitness (ln) (37 °C): -1.56 ± 0.17

CGACAGCAAUAUUACGAUGG
self-splicing fitness (ln) (30 °C): -0.855 ± 0.072
self-splicing fitness (ln) (37 °C): -0.172 ± 0.094

GACCAGCAAUAUUACGGCGC
self-splicing fitness (ln) (30 °C): -0.331 ± 0.09
self-splicing fitness (ln) (37 °C): 0.162 ± 0.1

UGAUAGCAAUAUUACGUAGU
self-splicing fitness (ln) (30 °C): -4.18 ± 0.31
self-splicing fitness (ln) (37 °C): -2.38 ± 0.28

GGAGAGCAAUAUUACGUGGC
self-splicing fitness (ln) (37 °C): -1.63 ± 0.25

UAGAAGCAAUAUUACGCCGU
self-splicing fitness (ln) (30 °C): -2.41 ± 0.23
self-splicing fitness (ln) (37 °C): -2.68 ± 0.36

ACGAAGCAAUAUUACGUGGU
self-splicing fitness (ln) (30 °C): -3.5 ± 0.16
self-splicing fitness (ln) (37 °C): -2.95 ± 0.15

UCGGAGCAAUAUUACGACUU
self-splicing fitness (ln) (30 °C): -3.46 ± 0.22
self-splicing fitness (ln) (37 °C): -2.48 ± 0.19

UAGCAGCAAUAUUACGGAUC
self-splicing fitness (ln) (30 °C): -3.34 ± 0.21
self-splicing fitness (ln) (37 °C): -1.4 ± 0.2

UGGCAGCAAUAUUACGCGGC
self-splicing fitness (ln) (30 °C): -4.17 ± 0.29
self-splicing fitness (ln) (37 °C): -2.23 ± 0.26

AGCCAGCAAUAUUACGCGCA
self-splicing fitness (ln) (30 °C): -0.445 ± 0.061
self-splicing fitness (ln) (37 °C): 0.255 ± 0.074

GUGAAGCAAUAUUACGAUGU
self-splicing fitness (ln) (30 °C): -0.316 ± 0.064
self-splicing fitness (ln) (37 °C): -0.0235 ± 0.094

AAAUAGCAAUAUUACGGGGC
self-splicing fitness (ln) (30 °C): -3.72 ± 0.32
self-splicing fitness (ln) (37 °C): -2.34 ± 0.29
